From the nanobody polyreactivity screen of Harvey et al. (2022)

test: yeast display, Sf9 membrane polyspecificity reagent, FACS + sequencing; frameworks hold sequencing errors
How it was run: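 Polyreactivity labels are assigned by the sorting gate from which each nanobody was recovered. The gates were low and high (top ~1%), set on anti-HA fluorescence for expression and streptavidin fluorescence for reagent binding. Before sorting, galactose-induced (36–48 hours) yeast display cells were stained for 1 hour at 4 °C with 10% biotinylated, detergent-solubilized Sf9 membrane reagent.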

Sequence	polyreactivity (PSR sort gate)
QVHLEESGGGLVQAGGSLRLSCAASGSIFGDNAKGWYRQAPGKERELVAAISSSGGSTYADSVKGRFTISRDNAKNTVYLQMNSLKPEDTAVYYCATQIAWCTYVINPQMDFWGQGTLVTVSS	low polyreactivity
QVHLEESGGGLVQAGGSLRLTCAASGFTFQLYAMGWYRQPPGKERELVAAINYRGSSTYYADSVKGRFTISRDNAKNTVYLQMNSLKPEDTAVYYCNAAQYYERFNHWGQGTQVTVSS	high polyreactivity
QVHLHETGGGLVQAGGSLRLSCAASGTISVTYNMGWYRQAPGKEREFVAGNSTGATTNYADSVKGRFTISRDNANNTVYLQMNSLKPEDTAVYYCAAHIYRKDHFYYWGQGTQVTVSS	low polyreactivity
QVHLLASGGGLVQAGGSLGLSCAASGRPFNGYALGWYRPAPGSERELVASITLRGGSTYYADSVKGRFTISRDNAKYTVYLQMNCLKPEDTAVYYCNARPNTRRYTFPYGNCGQGTQVTVSS	high polyreactivity
QVHLLDSGGGLVQEGGSLRLSCAASGSTIYVYAMGWYRQAPGKERELVAAITWDGDRTYYADSVKGRFTISRHNAKNTVYLHMTSLNPEDSAVYYCNRDIGGTSVLDDYWGQGTQVTVSS	low polyreactivity
QVHLLESGGGLLQAGGSLRLNSDASGSTFITYCIGWFRQAPGKERELVARITLSGGSTYYADSVKGRFTSSRDNAKNTVYLQMNRLKPEDTAVYYCATDFGWQYYVLDGYYWGQGTQVTVSS	low polyreactivity
QVHLLESGGGLLQAGGSLRLSCAASGLIFRPYAMGWYRQAPGKERELVAGISFRGDSTYYADSVKGRFTISRDNAKNTVYLHMNSLKPEDTAVYYWNKRKASSSGYNYWGQGTQVTVSS	low polyreactivity
QVHLLESGGGLVQAGGSLRLSCAASGRTLSRYTMGWYRQAPGKERELVAAISTSGSTYYADSVKGRFTISRDNAKNTVYLPMNCLKPEDTAVYYCAATHWAYSRVPYDYWGQGTQVTVSS	high polyreactivity
QVHLQESGGLVQAGGLRLSCAASGSVSYHEAMGWYRQAPAKERELVATISFGANTNYADSVKGRFTISRDNAKHTVYLHMNSLKPEDTAVYYCAAESLFDDYYGYWGQGTQVTVSS	low polyreactivity
QVHLQESGSGLVQSGGSLRLTCAASGYISLGDNMGWYRQAPGKELEFVATISVGGITYYVDSVKGPFTISRDIEKNTVYLQMNSLKPEDTAVYYCASLDIYYFRYYYWGQGTQVTVSS	low polyreactivity
QVHLVDSGGGLVQAGGPLRLTCPASGSTYRYTIGWYRQAPGKQRELVAAITGSAGRTYYADSVKGRFTISRDNAKNTVYLQMNSLKPEVTAVYYCNKVRPSKFWDYYYCGQGTQVTVSS	high polyreactivity
QVHLVDSGGGLVQAGGSLRLSCAASGLIFVSYAMGWYRQEPGKERELVASITDSDSSTYYADSVKGRFTISRDNAKNTVYLQMNSLKPEDTAVYYCATGGRTEIWYPTLDYWGQGTQVTVSS	low polyreactivity
QVHLVDSGGGLVQAGGSLRLSCAASGRIFSPYAMGWYRQAPGKERELVASINYSGGSTYADSVKGRFTISRDNAKNTVYLQMNSLKPEDTAVYYCAAEDIGRYYRLDYWGQGTQVSVSS	low polyreactivity
QVHLVDSGGGLVQAGGSLRLSCAASGRTFGRNAMGWYRQAPGKERELVAAISLRGGRTYYADSVKGRFTISRDNAKNTVYLQMNSLKPEDTAVYYCAAYGYRDYYFWGQGTQVTVSS	high polyreactivity
QVHLVDSGGGLVQAGGSLRLSCAASGRTFYSYAMGWYRQAPGKERELVAAINSGGDTYYADSVKGRFTISRDNAKNSVYLQMNSLKPEDTAVYYCAADYYWEMDSWGQGTQVTVSS	low polyreactivity
QVHLVDSGGGLVQAGGSLRLSCAASGRTFYYYAMGWYRQAHGKERELVATISRTGTTNYADSVKGRFTISRDNAKNTVYLQMNSLKPEDTAVYYCAAERATPWPKNDYWGQGTQVTVSS	high polyreactivity
QVHLVDSGGGLVQAGGSLRLSCAASGSIISVYFMEWYRQAPGKERELVASITSGASTNYADSVKGRFTISRDNAKNTVYLQINSLKPEDTAVYYCCARDWYDGFYYWGQGTQVTVSS	low polyreactivity
QVHLVDSGGGLVQAGGSLRLSCAASGSTFDYNAMGWYRQAPGQESELVAAISWRGGGTYYADSVKGRFTISRDNAKTTVYLQMNSLKPEDTAVYYCAASAYKGTGAEFDYWRQGTQVTVSS	low polyreactivity
QVHLVDSGGGLVQARGSLRLSCAASGLTFRYYTMAWYRQAPGKERELVAAISSSGGSTYYADSVKGRFTISRDNAKNTVYLQMNSLKPEDTAVYYCADSASLRHVYWGQGTQVTVSS	high polyreactivity
QVHLVDSGVGLDQAGGILRLSCAASGSTFGFYALGWYRQSPGKERELVAAINSTGGSTYYADSVKGRFTISRDNAKNTVYLQMNSLKPEDTAVYYCNVDLYSLYDWGQGTQVTVSS	high polyreactivity
QVHLVDSGVGLVQAGGSLRLSCAASGYTFVPYAMGWYRQAPGKERELVAAISSSGGSTYYADAVKGRFTISRDNAKNTVYLQMNSRKPEDSAVYYWAADYRTGQFYAGFDYWGQGTQVTVSS	high polyreactivity
QVHLVESAVGLVQAGGSLRLSCAASASTFPSYAMGWYRQAPGKERELVAAINSGGGTNYADSVKGRFTISRDNAKNTVYLQMNSLKPEDTAVYYCAKSRYDYTKTEGGYWGQGTQVTVSS	low polyreactivity

Sequence	polyreactivity (PSR sort gate)
QVHLVESGGALVQAGGSLRLSCAASAYTFSYYAMGWYRQAPGKEMELVAAITSTGSTYYADSVKGRFTISRDNAKNTVYLQMNSLKPEDTAVYYCNVDDATVGPVDYWGQGTQVTVSS	low polyreactivity
QVHLVESGGCLVQAGGSLRLSCAASGITFRWYAMGWYILAPGKERELVSSIDGRGASTYADSVKGRFTSSRDNAKNTVYLQMNSLKPEDSAVYYCAVAQVRVSYLWVRKFYYWGQGTQVTVSS	high polyreactivity
QVHLVESGGCLVQAGGSLRLSCAASGNSFVSNAMGWYIQAPGKERELVAAIDSGGSTNYADSVKGRFTISRDNAKNTVYLQMNSLKPVDTAVYYCNRTSVYYYYWGQGTQVTVSS	low polyreactivity
QVHLVESGGCLVQAGGSLRLSCAASGRIFGVYVMGWYRQARGTEREFVAAITWSGGRTYYADSVKGRFTISRDNAKNTVYFQMNSLKPQDTAVYYCAARRSYEYVYWGKGTQVTVSS	high polyreactivity
QVHLVESGGCLVQAGGSLRLSCAAYGSIFPKYALGWYRQAPGKERELVATISYRGGRTYYADSVKRRFTISRDNAKNTVYLQMNSLKPEDTAVYYWNAHSQAKLDYWGQGTQVTVSS	low polyreactivity
QVHLVESGGGIVQAGGSLRLSCAASGRTFRKYAMGWYRQAPGKEMELVAAISWSGGSTYYANSVKGRFTISRDHAKNTVYLQLNSLIPEDPAVYYCAATAYYYYDYDYWGQGTQVTVSS	low polyreactivity
QVHLVESGGGIVQAGGSLRLSCAASGSIFKKNAMGWSRQAPGKERELVAAITLSSSDTYYADSVKGRFTISRDNAKNTVYLQMNSLKPEDTAVYYCAAKRTRDMDYWGQGTQVTVSS	high polyreactivity
QVHLVESGGGIVQAGGSLRLSCAASGSIFKYYPMGWYRQAAGKERELVAVISSGGRTYYADSVKGRFTISRDNAKNTVYLQMNSLKPEDTAVYYCAVYRTFRYRYDSWGQGTQVTVSS	high polyreactivity
QVHLVESGGGIVQAGGSLRLSSAATGRTFPYNAMGWYRQAPGKERELVAAISSGGSTNYADSVKGRFTISRDNAKNTVYLQMNSLKPEDTAVYYCATKYQRRPYRYYYWGQGTQVTVSS	low polyreactivity
QVHLVESGGGLDQAGASLRITSAATGFTFRQNVKRWYRQAPGKESEFVATITWSGGRTSYADSVKGRFTISRDNAKNTVYLQMNSLKPEDTAVYYCAARFFSYSQYAYNYWGQGTQVTVSS	high polyreactivity
QVHLVESGGGLFQAGGSLRISCSASGSIFARNAMGWYRQAPGKERELVAAISRSGGSTYYADSVKGRFTISRDNAMMTVSFQMNSLKPEDTAVYYCAAVRRRTVGYNYWGQGTQVTVSS	high polyreactivity
QVHLVESGGGLFQAGGSLRLRCAASGFTFASNAMGWYIQAPGKERELVAAITRSGGSTFYADSVKGRFTISRDNAKNTVYLQMKSLKPEDTAVYYCNAAPYGFGWRVRAFTGYDYWGQGTQVTVSS	low polyreactivity
QVHLVESGGGLFQAVLSLRLSCAASGFIFQRYPMGWYRQAPGKESELVAAISSGGGTNYADSVKGRFTISRDNAKKTVYLQLNSLIPEDTAVYYCARPYYVYSQSSDYWGQGTQVTVSS	low polyreactivity
QVHLVESGGGLGQAGGSLRLSCAASGIIFRLYAKGWYIPAPGKERELVAAISRRGDSTYYADSVKGRFTISRDNAKNTVYLQMIILKPEDTAVYYCAAERWGDYGYWGQGTQVTVSS	high polyreactivity
QVHLVESGGGLLQAGGSLRLSCAASGSIFAYNAMGWYREAPRKERELVASITNGGSTYYADSVKGRFTISRYNAKNSVYLQMKSLKPEDTAVYYCNTDFDGYSVGYDGYWGQGTQVTVSA	low polyreactivity
QVHLVESGGGLVEAAVSLRLSYAASGITVKSYAMGSYRQAPGKERELVADISSSGGTTYYADYVKGRFTISRDNAKNTVYLKMKSLKAEHTAVYYCNAKWGRYFSGGYGDEYDYWGQGTQVTVSS	high polyreactivity
QVHLVESGGGLVHAGGRLRLSCAASGRIFGLNAMGWYRQAPGKERELVAAIDIIGGSTYYADSVKGRFTISRDNAKNTVYLQMNSLIPEDTAVFYCAAEADFWRFVEFDYWGQGTQVTVSS	low polyreactivity
QVHLVESGGGLVNAGGSLRLSCAASGRIFSGYAMGWYRQAPGKERELVAAITSVGSTNNADSVKGRFTISRDNAKNTVYLQMNSLKPEDTAVYYCAARGSYARGYDYWGQGTQVTVSS	high polyreactivity
QVHLVESGGGLVQAAGSLRLSCAASGSTFKYNAMGWYRQAPGKERELVAAITRGGRTYYADSVKGRFTISRDNAKNTVYLQMNSLKPEDTEVYYCAAAIPSGTFYAGAYYYWGQGTQVTVSS	high polyreactivity
QVHLVESGGGLVQAGASLRLSCAASGFTFGVNAMGWSRQAPGKERELVAVITSGGNTYYADSVKGRFTISRDNAKNTVYLHMNSLNPEDTAVYYCAAYGRASWERDYWGKGTQVTVSS	low polyreactivity
QVHLVESGGGLVQAGASLRLSCAASGRIFYKYAMGWYRQAPGKERELVAAISYRGGSTYYADSVKGRFTISRDNAKNSVYLQMKSLKPEDNAVYYCAADRWYYSVSTKSDSWGQGTQVTVSS	high polyreactivity
